Assay results: the supplement of paper PMC9170038

Test system: MS2 coat protein
Experiment: apparent KD of MS2 coat protein; designed switch direction (-1 OFF switch, 1 ON switch): -1; higher = weaker reporter binding
Summary of the method: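 The reported apparent KD is a per-design median over clusters, from curve fits of normalised cluster fluorescence. Protein titrations used SNAP-549-labelled MS2 coat protein, doubled from 0.7 or 1.5 nM to 3 µM, in Tris-HCl pH 7.5 buffer with KCl, MgCl2, BSA, DTT, tRNA and Tween-20, with no input, 200 uM small-molecule ligand, or an oligonucleotide input. The RNA switches were transcribed on Illumina chips by stalled E. coli RNA polymerase.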

[1] = Eterna round: R95, input ligand: FMN 200 uM
[2] = Eterna round: R95, input ligand: microRNA oligo, concentration not stated
[3] = Eterna round: R95, input ligand: none
[4] = input ligand: microRNA oligo, concentration not stated

| Sequence | apparent KD of MS2 coat protein [1] [nM] | apparent KD of MS2 coat protein [2] [nM] | apparent KD of MS2 coat protein [3] [nM] | apparent KD of MS2 coat protein (input ligand: FMN 200 uM) [nM] | apparent KD of MS2 coat protein (input ligand: none) [nM] | apparent KD of MS2 coat protein [4] [nM] |
| --- | --- | --- | --- | --- | --- | --- |
| ACCUCACAUGAGGAUCACCCAUGUCAGGAUAUACAAGAAAAUAACCGGAAAGAACGGAGUAGAAGGGACAUAAG [Zatigeri] (puzzle: Exclusion 1) | 28.1 | 15.3 | 15.8 |  |  |  |
| ACCUUACUGGUCAGGAUAUACAGUCUCGGGUGGGUGUAGAAGGGACAUGAGGAUCACCCAUGUAGGUUGCAGCA [alecazam56] (Eterna round: R97, puzzle: Brourd's mod of Exclusion 4) |  |  |  | 100 | 156 |  |
| ACGAAACAUGAGGAUCACCCAUGUGAGGAUAUGUAAAUAGUAAACAAAUAAGAAAUAAACAGAAGGCACACAGG [JR_Exclusion1_Sub004] (Eterna round: R96, puzzle: Exclusion 1) |  |  |  |  |  | 24.3 |
| ACGAAACAUGAGGAUCACCCAUGUGAGGAUAUGUAAAUAGUAAACAAAUAAGAAAUAAACAGAAGGCACACAGG [JR_Exclusion1_Sub004] (puzzle: Exclusion 1) | 57.2 | 26.3 | 28.2 |  |  |  |
| ACGAAGCACGAGGAUAUGACCAUAGUGAUAUGGUCAGAAGGCGUAACAUGAGGAUCACCCAUGUAGUGGCCUCG [Eternabot (Original) Solution 12] (Eterna round: R97, puzzle: Exclusion 6) |  |  |  | 212 | 20.1 |  |
| ACGCAUUGCCAAAGGUAGUGCGUUACAUGAGGAUCACCCAUGUAGGAUAUGGUAGGCAAAGCUUACCAGAAGGACAUGAUAAUU [Mat - Exclusion NG 3 - Mod of JL - D6] (Eterna round: R96, puzzle: Exclusion NG 3) |  |  |  | 227 | 51.2 | 44.8 |
| ACGCAUUGCCUUUGGUAGUGCGUAACAUGAGGAUCACCCAUGUAGGAUAUGGUAGGCAAAGCUUACCAGAAGGACAUAAUAAUU [Mat - Exclusion NG 3 - Mod of JL - D3] (Eterna round: R96, puzzle: Exclusion NG 3) |  |  |  | 73 | 32.7 | 31.4 |
| ACGCCGCAAGGAUAUACUUGCGGUGAUGUUCGAGUUCUUCUACUUGAGGAUCACCCAAGUAGAAGGUGCAAAAC [jl-ex2.4.60 ViennaUCT mod] (Eterna round: R97, puzzle: Exclusion 2) |  |  |  | 14.9 | 14 |  |
| ACGCGAGUAGGAGGAUAUUCCGAGCGCGGGCCGGGAGAAGGCCUAGAUCGUGAACAUGAGGAUCACCCAUGUGGGAUGAUCUAA [Ededaranri] (Eterna round: R96, puzzle: Exclusion NG 1) |  |  |  | 8.23 | 313 | 94.9 |
| ACGUAUAGAGGAUAUAGUGAAUAUUACAUGAGGAUCACCCAUGUUCUUCAAAGCAUAUUCCUAGAAGGCUAAUGAA [EX-5 Malc#12] (puzzle: Exclusion 5) | 113 | 44.4 | 56.4 |  |  |  |
| ACGUCCUUGGUAAGGAUAUCGAUGGAGGCGAUCCACGAGAAGGUACAUGAGGAUCACCCAUGUAUACGAAUACG [Eternabot (L1) Solution 94] (Eterna round: R97, puzzle: Brourd's mod of Exclusion 4) |  |  |  | 18.4 | 17.8 |  |
| ACUAAACAUGUAGGAUAUGCGUGGCGAAGCUAUGCAGAAGGACAUGAGGAUCACCCAUGUUUUAGCGUCUGCGUACAGAUGCGU [JL ENG1 1.44] (Eterna round: R96, puzzle: Exclusion NG 1) |  |  |  | 200 | 22.7 | 17.5 |
| ACUACUAACACGAAAGUGUUAGUACAAUAAGCUUGUGAAACAUGAGGAUCACCCAUGUCCUCAUAAGCUCGUCUUAA [salish99_TOv2_r3_012] (puzzle: Sensor v3, turn-off variant 2) | 14.4 | 211 | 13.8 |  |  |  |
| ACUAGAUGAGGAUAUACACAUUUUAGUGUUCCUCUAGAUUAACAUGAGGAUCACCCAUGUAGAAGGCAUCAUUA [Exclusion 2 - 9] (puzzle: Exclusion 2) |  | 65 |  |  |  |  |
| ACUAGAUGAGGAUAUGCAUGUUUUCGUGUUCUUCUAGAUUAACAUGAGGAUCACCCAUGUAGAAGGCGUCAAUU [Exclusion 2 - 28] (puzzle: Exclusion 2) |  | 48 |  |  |  |  |
| ACUCAGUCAGGAUAUCAAUCCGCCUGUGAUACGCAGGCGGCUGAGAAGGGACAUGAGGAUCACCCAUGUAAAGA [jl-ex4-4.18 ViennaUCT mod] (Eterna round: R97, puzzle: Exclusion 4) |  |  |  | 538 | 129 |  |
| ACUGGAGCAGGAUAUACAUAACGUGCUUCGGCACGAGAUCUACAUGAGGAUCACCCAUGUAGAAGGGCUCCAGU [E2/10-D1] (Eterna round: R97, puzzle: Exclusion 2) |  |  |  | 28.3 | 13.3 |  |
| ACUGGUCGAGGAUAUACAUGAGGAUCACCCAUGUGGUCACGUGACGAUAGUCACGAAUGUAGAAGGCGACCAGU [E3/3-A2] (Eterna round: R97, puzzle: Exclusion 3) |  |  |  | 15.7 | 123 |  |
